This note sets out measurements from patent US20240301061A1 (BEIGENE SWITZERLAND, published 2024).

The target of assay [1] is T1, human claudin 6 (CLDN6) (human, UniProt P56747 1-220).
T1 construct: also called human CLDN6; hCLDN6
T1 sequence: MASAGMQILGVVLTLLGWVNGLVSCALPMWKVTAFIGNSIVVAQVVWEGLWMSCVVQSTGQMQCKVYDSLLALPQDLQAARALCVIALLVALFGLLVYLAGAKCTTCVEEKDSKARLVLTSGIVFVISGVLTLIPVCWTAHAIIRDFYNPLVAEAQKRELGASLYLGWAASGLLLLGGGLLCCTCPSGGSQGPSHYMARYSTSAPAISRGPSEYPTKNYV
The assay is described as follows: flow cytometry, PA-1 cells. As for the experimental part: (§1) For affinity determination, CLDN6 over-expressing HEK293T cells and cancer cell line PA-1 which express high levels of human CLDN6 were used to evaluate the binding activity of BG87P related engineering variants. Live cells were seeded in 96-well plate, and were incubated with a series of dilutions of chBG87P and engineered variants thereof. Goat anti-human IgG was used as second antibody to detect antibody binding to the cell surface. EC50 values for dose-dependent binding to CLDN6 expressing cell lines were determined by fitting the dose-response data to the four-parameter logistic model with GraphPad Prism. Cell binding activity of 1st round of BG87P humanization variants against HEK293T/human CLDN6 were compared to chBG87P and shown in FIG. 1A.
Background: Flow cytometry measures light scatter and fluorescence of single cells or particles in a stream.

Assay [2] deals with T1, human claudin 6 (CLDN6). In words: flow cytometry, HEK293T-human CLDN6 cells; ratio to chBG87P. As for the experimental part:
as §1

Assay [3] deals with T1, human claudin 6 (CLDN6). In words: flow cytometry, PA-1 cells; ratio to chBG87P. How it is done:
as §1

The target in assay [4] is T1, human claudin 6 (CLDN6). In words: flow cytometry, HEK293T-hCLDN6 cells; ratio to chBG87P.
The target in assay [5] is T1, human claudin 6 (CLDN6). The assay is described as follows: flow cytometry, HEK293-hCLDN6 cells; ratio to chBG87P.
A further assay concerns the target T2, cyno CLDN6 (cyno).
T2 construct: whole, on cells; also called cynomolgus CLDN6
In words: flow cytometry, HEK293T-cyno-CLDN6 cells; ratio to chBG87P.

B1: BG87P-22 (antibody, V domains shown)
VH: QVQLVQSGAEVKKPGASVKVSCKASGYSFTDYHINWVRQAPGQRLEWMGWIYPGSGYTKYNEKFKGRVTITRDTSASTAYMELSSLRSEDTAVYFCARSGIYHYVSSYYFDHWGKGTTVTVSS
VL: DIQMTQSPSTLSASVGDRVTITCKASQDVGTAVAWYQQKPGKAPKLLIYWASTRHTGVPSRFSGSGSGTEFTLTISSLQPDDFATYYCQQYSSYTFGGGTKVEIK
Consider B1, for which the “Top MFI Mean” value with human claudin 6 (CLDN6) [1] came to 67800 MFI. The “Emax ratio to BG87P” value with human claudin 6 (CLDN6) [2] was 0.71; in the assay with human claudin 6 (CLDN6) [3], 0.54.

B2: BG87P-31 (antibody, V domains shown)
VH: QVQLQQSGAETKKPGASVKVSCKASGYSFTDYHINWVRQASGQRLEWMGYIYPGSGHTKKNEKFKGRVTITRDTSASTAYMELSSLRSEDTAVYYCARSGIYHYVSSYYFDHWGKGTTVTVSS
VL: DIQMTQSPSTLSASVGDRVTITCKASQDAGSAVAWYQQKPGKAPKLLIKWASTRHTGVPSRFSGSGSGTEFTLTISSLQPDDFATYYCQQYSSYTFGGGTKVEIK
notes: Solubility engineering variant of BG87P-21
On to B2, for which, in the assay with human claudin 6 (CLDN6) [4], the “FACS Emax ratio to BG87P” value was 0.76. In addition, the “FACS-Ec50 ratio to BG87P” value with human claudin 6 (CLDN6) [5] worked out at 1.6.

B3: BG87P-32 (antibody, V domains shown)
VH: QVQLQQSGAETKKPGASVKVSCKASGYSFTDYHINWVRQASGQRLEWMGYIYPGSGHTKKNEKFKGRVTITRDTSASTAYMELSSLRSEDTAVYYCARSGIYHYVSSYYFDHWGKGTTVTVSS
VL: DIQMTQSPSTLSASVGDRVTITCKASQDAGSAVAWYQQKPGKAPKLLIYWASTRHTGVPSRFSGSGSGTEFTLTISSLQPDDFATYYCQQYSSYTFGGGTKVEIK
notes: as for B2
Turning to B3, in the assay with human claudin 6 (CLDN6) [4], the “FACS Emax ratio to BG87P” value was 0.63. Moreover, the “FACS-Ec50 ratio to BG87P” value with human claudin 6 (CLDN6) [5] is 1.31.

B4: BG87P-33 (antibody, V domains shown)
VH: EVQLQESGGGLVQPGGSLRLSCAASGYSFTDYHINWVRQAPGKGLEWVSYIYPGSGHTKYNEKFKGRFTISRDTSKNTAYLQMNSLRAEDTAVYYCARSGIYHYVSSYYFDHWGQGTLVTVSS
VL: DIQMTQSPSTLSASVGDRVTITCKASQDAGSAVAWYQQKPGKAPKLLIYWASTRHTGVPSRFSGSGSGTEFTLTISSLQPDDFATYYCQQYSSYTFGGGTKVEIK
notes: Framework-swapped variant; also called BG87-33
As for B4, the “FACS Emax ratio to BG87P” value in the assay with human claudin 6 (CLDN6) [4] came to 0.91; with cyno CLDN6 it was 0.75. Moreover, the “FACS-Ec50 ratio to BG87P” value in the assay with human claudin 6 (CLDN6) [5] came out at 2.45.

B5: BG87P-24 (antibody, V domains shown)
VH: QVQLVQSGAEVKKPGASVKVSCKASGYSFTDYHINWVRQAPGQRLEWMGWIYPGSGYTKYNEKFKGRVTLTRDTSASTAYMELSSLRSEDTAVYYCARSGIYHYVSSYYFDHWGKGTTVTVSS
VL: DIQMTQSPSTLSASVGDRVTITCKASQDVGTAVAWYQQKPGKAPKLLIYWASTRHTGVPSRFSGSGSGTEFTLTISSLQPDDFATYYCQQYSSYTFGGGTKVEIK
Consider B5, for which the “Emax ratio to BG87P” value with human claudin 6 (CLDN6) [2] is 0.73; with human claudin 6 (CLDN6) [3] it was 0.5.

B6: BG87P-34 (antibody, V domains shown)
VH: EVQLQESGGGLVQPGGSLRLSCAASGYSFSDYHINWVRQAPGKGLEWVGYIYPGSGHTKYNEKFKGRFTISRDTSSNTAYLQMNSLRAEDTAVYYCARSGIYHYVSSYYFDHWGQGTLVTVSS
VL: DIQMTQSPSSLSASVGDRVTITCKASQDAGSAVAWYQQKPGKAPKLLIYWASTRHTGVPSRFSGSGSGTDFTLTISSLQPEDFATYYCQQYSSYTFGGGTKLEIK
notes: Final lead anti-CLDN6 clone (IGHV3-23 / IGKV1-39 framework); also called BG87-34
Turning to B6, the results for the “FACS Emax ratio to BG87P” value with human claudin 6 (CLDN6) [4] and with cyno CLDN6 were 1.03 and 1, respectively. Further, the “FACS-Ec50 ratio to BG87P” value in the assay with human claudin 6 (CLDN6) [5] came out at 1.17.

B7: BG87P-27 (antibody, V domains shown)
VH: QVQLVQSGAEVKKPGASVKVSCKASGYSFTDYHINWVRQAPGQRLEWMGWIYPGSGYTKYNEKFKGRVTLTRDTSASTAYMELSSLRSEDTAVYFCARSGIYHYVSSYYFDHWGKGTTVTVSS
VL: DIQMTQSPSTLSASVGDRVTITCKASQDVGTAVAWYQQKPGKAPKLLIYWASTRHTGVPSRFSGSGSGTEFTLTISSLQPDDFATYYCQQYSSYTFGGGTKVEIK
With B7, the “Emax ratio to BG87P” value worked out at 0.68 in the assay with human claudin 6 (CLDN6) [2] and 0.53 in the assay with human claudin 6 (CLDN6) [3].

B8: BG87P-25 (antibody, V domains shown)
VH: QIQLVQSGAEVKKPGASVKVSCKASGYSFTDYHINWVRQAPGQRLEWMGWIYPGSGYTKYNEKFKGRVTLTRDTSASTAYMELSSLRSEDTAVYYCARSGIYHYVSSYYFDHWGKGTTVTVSS
VL: DIQMTQSPSTLSASVGDRVTITCKASQDVGTAVAWYQQKPGKAPKLLIYWASTRHTGVPSRFSGSGSGTEFTLTISSLQPDDFATYYCQQYSSYTFGGGTKVEIK
In the case of B8, the results for the “Emax ratio to BG87P” value with human claudin 6 (CLDN6) [2] and in the assay with human claudin 6 (CLDN6) [3] were 0.74 and 0.59, respectively.

B9: BG87P-26 (antibody, V domains shown)
VH: QIQLVQSGAEVKKPGASVKVSCKASGYSFTDYHINWVRQAPGQRLEWMGWIYPGSGYTKYNEKFKGRVTITRDTSASTAYMELSSLRSEDTAVYFCARSGIYHYVSSYYFDHWGKGTTVTVSS
VL: DIQMTQSPSTLSASVGDRVTITCKASQDVGTAVAWYQQKPGKAPKLLIYWASTRHTGVPSRFSGSGSGTEFTLTISSLQPDDFATYYCQQYSSYTFGGGTKVEIK
Regarding B9, the “Emax ratio to BG87P” value was determined as 0.77 with human claudin 6 (CLDN6) [2] and 0.54 in the assay with human claudin 6 (CLDN6) [3].

B10: BG87P-z0 (antibody, V domains shown)
VH: QVQLVQSGAEVKKPGASVKVSCKASGYTFTDYHINWVRQAPGQRLEWMGWIYPGSGYTKYNEKFKVRVTITRDTSASTAYMELSSLRSEDTAVYYCARSGIYHYVSSYYFDHWGKGTTVTVSS
VL: DIQMTQSPSTLSASVGDRVTITCKASQDVGTAVAWYQQKPGKAPKLLIYWASTRHTGVPSRFSGSGSGTEFTLTISSLQPDDFATYYCQQYSSYTFGGGTKVEIK
notes: Humanized, no back mutations; also called BG87P-20
For B10, the “Emax ratio to BG87P” value with human claudin 6 (CLDN6) [2] was determined as 0.5; with human claudin 6 (CLDN6) [3] it was 0.43.

B11: BG87P-23 (antibody, V domains shown)
VH: QIQLVQSGAEVKKPGASVKVSCKASGYSFTDYHINWVRQAPGQRLEWMGWIYPGSGYTKYNEKFKGRVTITRDTSASTAYMELSSLRSEDTAVYYCARSGIYHYVSSYYFDHWGKGTTVTVSS
VL: DIQMTQSPSTLSASVGDRVTITCKASQDVGTAVAWYQQKPGKAPKLLIYWASTRHTGVPSRFSGSGSGTEFTLTISSLQPDDFATYYCQQYSSYTFGGGTKVEIK
Regarding B11, the “Emax ratio to BG87P” value turned out to be 0.77 in the assay with human claudin 6 (CLDN6) [2] and 0.58 with human claudin 6 (CLDN6) [3].

B12: anti-CLDN6 chimeric BG87P (antibody, V domains shown)
VH: QIQLQQSGPELVKPGASVKISCKASGYSFTDYHINWVKQRPGQGLEWIGWIYPGSGYTKYNEKFKVKATLTVDTSSSTAYMHLTSLTSEDSAVYFCARSGIYHYVSSYYFDHWGQGTTLTVSS
VL: DIVMTQSHTFMSTSVGDRVSITCKASQDVGTAVAWYQQKPGQSPKLLIYWASTRHTGVPDRFTGSGSGTDFTLTISNVQSEDLADYFCQQYSSYTFGGGTKLEIK
notes: expressed in HEK293T; also called chBG87P; ChBG87P
B12: the “FACS Emax ratio to BG87P” value with human claudin 6 (CLDN6) [4] and with cyno CLDN6 was 1 throughout. Also, the “FACS-Ec50 ratio to BG87P” value with human claudin 6 (CLDN6) [5] is 1. The “Emax ratio to BG87P” value in the assay with human claudin 6 (CLDN6) [2] and with human claudin 6 (CLDN6) [3] was 1 in each case.

B13: BG87P-m4 (antibody, V domains shown)
VH: QIQLQQSGPELVKPGASVKISCKASGYSFTDYAINWVKQRPGQGLEWIGWIYPGSGYTKYNEKFKVKATLTVDTSSSTAYMHLTSLTSEDSAVYFCARSGIYHYVSSYYFDHWGQGTTLTVSS
VL: DIVMTQSHTFMSTSVGDRVSITCKASQDVGTAVAWYQQKPGQSPKLLIYWASTRHTGVPDRFTGSGSGTDFTLTISNVQSEDLADYFCQQYSSYTFGGGTKLEIK
notes: Variant of chBG87P with H33A
B13: the “Emax ratio to BG87P” value with human claudin 6 (CLDN6) [2] turned out to be 0.74.
